US20030104423A1 (WISCONSIN ALUMNI RESEARCH FOUNDATION, published 2003)

Key:
[1] = molecular target: T1, β′ 1-1407 R297S with C-terminal His6 (pTA606) (Escherichia coli, UniProt P0A8T7 1-1407); assay: Assembly Eσ32 holo: co-purification with His6-β′ from cells, Western blot; grade
T1 construct: range 1-1407
Experimental: (§1) The cultures were grown at 37° C. with shaking until the A₆₀₀=0.4 for log phase assays and 2 hours longer (A₆₀₀ about 2.0) for the early stationary phase assays. The cells were harvested by centrifugation at 6,000 rpm for 10 minutes and stored at −20° C. until use. The cell pellets were resuspended in 5 ml TE (10 mM Tris-HCl, pH 7.9 and 0.1 mM EDTA) plus 0.15 M NaCl and lysozyme (0.1 mg/ml) then incubated on ice for 15 minutes. The cells were sonicated 2×30 seconds and centrifuged for 25 minutes at 27,000× g to pellet the insoluble material. […] The column was washed with 15 ml TE plus 0.15 M NaCl followed by a second wash with 10 ml TE plus 0.5 M NaCl. The protein was eluted from the column with 4 ml TE plus 0.7 M NaCl and 30% propylene glycol. The eluted sample (4 ml) was diluted with 6 ml buffer B (20 mM Tris-HCl, pH 7.9, 500 mM NaCl, 5 mM imidazole, 0.1% (v/v) Tween 20, and 10% (v/v) glycerol) and loaded (2×) onto 500 μl of Ni²⁺-NTA resin. The resin was washed (2×) with 5 ml of buffer B and eluted with 0.5 ml buffer B plus 0.25 M imidazole. Samples from the elution fractions were assayed by Western blot as described above using Mabs to each subunit or a factor. The secondary antibodies were horseradish peroxidase-labeled goat antimouse IgG antibodies and the signal was generated using the ECL+ substrate system (Amersham) and detected using the STORM FluoroImager and quantitated with IMAGEQUANT software (Molecular Dynamics).

[2] = molecular target: T2, β′ 1-1407 Y269A with C-terminal His6 (pTA601) (Escherichia coli, UniProt P0A8T7 1-1407); assay: as above
T2 construct: range 1-1407
Experimental: as §1

[3] = molecular target: T3, β′ 1-1407 R293Q with C-terminal His6 (pTA604) (Escherichia coli, UniProt P0A8T7 1-1407); assay: as above
T3 construct: range 1-1407
Experimental: as §1

[4] = molecular target: T4, β′ 1-1407 E295K with C-terminal His6 (pTA605) (Escherichia coli, UniProt P0A8T7 1-1407); assay: as above
T4 construct: range 1-1407
Experimental: as §1

[5] = molecular target: T5, β′ 1-1407 N266D with C-terminal His6 (pTA600) (Escherichia coli, UniProt P0A8T7 1-1407); assay: as above
T5 construct: range 1-1407
Experimental: as §1

[6] = molecular target: T6, β′ 1-1407 Q300E with C-terminal His6 (pTA607) (Escherichia coli, UniProt P0A8T7 1-1407); assay: as above
T6 construct: range 1-1407
Experimental: as §1

[7] = molecular target: T7, β′ 1-1407 K280E with C-terminal His6 (pTA603) (Escherichia coli, UniProt P0A8T7 1-1407); assay: as above
T7 construct: range 1-1407
Experimental: as §1

[8] = molecular target: T8, β′ 1-1407 A302D with C-terminal His6 (pTA608) (Escherichia coli, UniProt P0A8T7 1-1407); assay: as above
T8 construct: range 1-1407
Experimental: as §1

[9] = molecular target: T9, β′ 1-1407 R275Q with C-terminal His6 (pTA602) (Escherichia coli, UniProt P0A8T7 1-1407); assay: as above
T9 construct: range 1-1407
Experimental: as §1

[10] = molecular target: T10, β′ 1-1407 N309D with C-terminal His6 (pTA609) (Escherichia coli, UniProt P0A8T7 1-1407); assay: as above
T10 construct: range 1-1407
Experimental: as §1

[11] = molecular target: T11, β′ 1-1407 wild type with C-terminal His6 (pTA577) (Escherichia coli, UniProt P0A8T7 1-1407); assay: as above
T11 construct: range 1-1407; also called wt; wild type β′
Experimental: as §1

[12] = molecular target: T1, β′ 1-1407 R297S with C-terminal His6 …; assay: co-purification with His6-β′ from cells, Western blot
[13] = molecular target: T6, β′ 1-1407 Q300E with C-terminal His6 …; assay: as above
[14] = molecular target: T11, β′ 1-1407 wild type with C-terminal …; assay: as above
[15] = molecular target: T12, Bovine serum albumin (bovine, UniProt P02769 25-607); assay: Ni-NTA co-immobilization, SDS-PAGE
T12 construct: also called BSA

[16] = molecular target: T13, σ70, native, untagged (pLN12) (Escherichia coli, UniProt P00579 1-613); assay: Ni-NTA co-immobilization, SDS-PAGE
T13 construct: range 1-613; also called native ?^70

T12 sequence (P02769 25-607 limits assumed): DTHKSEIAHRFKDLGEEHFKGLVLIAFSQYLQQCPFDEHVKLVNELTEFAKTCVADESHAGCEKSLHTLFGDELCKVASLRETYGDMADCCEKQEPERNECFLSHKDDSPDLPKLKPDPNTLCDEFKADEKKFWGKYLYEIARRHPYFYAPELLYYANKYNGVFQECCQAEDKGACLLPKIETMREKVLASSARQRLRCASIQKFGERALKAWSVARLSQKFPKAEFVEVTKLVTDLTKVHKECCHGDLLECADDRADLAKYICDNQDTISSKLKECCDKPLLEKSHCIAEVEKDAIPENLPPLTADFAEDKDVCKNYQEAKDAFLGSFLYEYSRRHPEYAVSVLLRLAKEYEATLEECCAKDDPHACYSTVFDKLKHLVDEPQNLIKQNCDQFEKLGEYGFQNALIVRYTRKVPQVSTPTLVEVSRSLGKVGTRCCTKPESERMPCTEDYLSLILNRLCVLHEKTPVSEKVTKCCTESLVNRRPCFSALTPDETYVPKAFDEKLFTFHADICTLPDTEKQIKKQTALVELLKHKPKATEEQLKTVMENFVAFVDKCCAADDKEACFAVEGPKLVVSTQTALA

B1: σ32 of E. coli (the cell's own) (other)
chain: MTDKMQSLALAPVGNLDSYIRAANAWPMLSADEERALAEKLHYHGDLEAAKTLILSHLRFVVHIARNYAGYGLPQADLIQEGNIGLMKAVRRFNPEVGVRLVSFAVHWIKAEIHEYVLRNWRIVKVATTKAQRKLFFNLRKTKQRLGWFNQDEVEMVARELGVTSKDVREMESRMAAQDMTFDLSSDDDSDSQPMAPVLYLQDKSSNFADGIEDDNWEEQAANRLTDAMQGLDERSQDIIRARWLDEDNKSTLQELADRYGVSAERVRQLEKNAMKKLRAAIEA
notes: also called E?32
[1]
  binding result: binds
[2]
  binding result: binds
[3]
  binding result: binds
[4]
  binding result: no binding
[5]
  binding result: no binding
[6]
  binding result: binds
[7]
  binding result: binds
[8]
  binding result: no binding
[9]
  binding result: no binding
[10]
  binding result: binds
[11]
  binding result: binds

B2: σF of E. coli (the cell's own) (other)
chain: MNSLYTAEGVMDKHSLWQRYVPLVRHEALRLQVRLPASVELDDLLQAGGIGLLNAVERYDALQGTAFTTYAVQRIRGAMLDELRSRDWVPRSVRRNAREVAQAIGQLEQELGRNATETEVAERLGIDIADYRQMLLDTNNSQLFSYDEWREEHGDSIELVTDDHQRENPLQQLLDSNLRQRVMEAIETLPEREKLVLTLYYQEELNLKEIGAVLEVGESRVSQLHSQAIKRLRTKLGKL
[12]
  binding result: binds
[13]
  binding result: binds
[14]
  binding result: binds

B3: His6-HMK-β′1-309 (pTA525) (enzyme)
chain: MKDLLKFLKAQTKTEEFDAIKIALASPDMIRSWSFGEVKKPETINYRTFKPERDGLFCARIFGPVKDYECLCGKYKRLKHRGVICEKCGVEVTQTKVRRERMGHIELASPTAHIWFLKSLPSRIGLLLDMPLRDIERVLYFESYVVIEGGMTNLERQQILTEEQYLDALEEFGDEFDAKMGAEAIQALLKSMDLEQECEQLREELNETNSETKRKKLTKRIKLLEAFVQSGNKPEWMILTVLPVLPPDLRPLVPLDGGRFATSDLNDLYRRVINRNNRLKRLLDLAAPDIIVRNEKRMLQEAVDALLDN
[15]
  binding result: no binding
[16]
  binding result: binds
